26 sequences from the supplement of paper PMC9170038 can be followed below.

For this data set, the system named is MS2 coat protein. Briefly: apparent KD of MS2 coat protein; higher = weaker reporter binding. Particulars: Eterna round: R107. An outline of the steps:
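Titrations with SNAP-549-labelled MS2 coat protein ran in twofold steps from 0.7 or 1.5 nM to 3 µM, each step taking 0.8–1.5 h at the start and 10–20 min toward the end. The targets were designed RNA switches transcribed on-chip from Illumina sequencing clusters, held in 100 mM Tris-HCl pH 7.5, 80 mM KCl, 4 mM MgCl2, without or with constant ligand. Apparent KD was taken per design as the median of normalised cluster binding-curve fits.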

[1] abbreviates: input ligand: theophylline 20 uM.
[2] abbreviates: input ligand: theophylline 2 mM.
Setting [3] is: input ligand: tryptophan 2.4 mM.

For “AGUUGACGAAAGUCAGCAACAUGAUCCGAAGGAGCGGGCGAAAGCCCAGGUAGGUCGCGGACAUGAGGAUCACCCAUGUCUCCUU [MAT - Exclusion Arginine A - Mod of Eli - D12]”, the “apparent KD of MS2 coat protein” value by setting is: (input ligand: arginine 13.2 mM) 37.8 nM; (input ligand: none) 73.4 nM; under setting [1], 78.8 nM; under setting [2], 92.6 nM; under setting [3], 70.7 nM.
On the same counts, the results for “AUAACAUGAGGAUCACCCAUGUAACCUGAAGGAGCGGACGAAAGUCCAGGUAGGUCGCAGGACUCCUUCAACAUGGGAGAGGGAG [SSArg-A #27 NuPack the Brourd]” are 120 nM, 99 nM, 131 nM, 152 nM and 124 nM.
As to “AUAACAUGAGGAUCACCCAUGUAAGCAGAUACCAGCUAGGAAACUAGCCCUUGGCAGCUGCAUAGUGAUCCAUAUAUCUGCUAAU [(M1)-(M2)-(T1)-(T2)-(M)'-(T)'_Design8]”, the “apparent KD of MS2 coat protein” value (input ligand: arginine 13.2 mM) worked out at 40.6 nM, the “apparent KD of MS2 coat protein” value under setting [1] stood at 80.5 nM and the “apparent KD of MS2 coat protein” value under setting [3] was determined as 59.2 nM.
Take “AUAACUGCCAAGGAUCAUGGGUGAGCAGAUACCAGCUAGGAAACUAGCCCUUGGCAGCUGCAACAUGAGGAUCACCCAUGUAAUA [(T)'-(M)'-(T1)-(T2)-(M1)-(M2)_Design8]”: the “apparent KD of MS2 coat protein” value worked out at 38.5 nM (input ligand: arginine 13.2 mM); 147 nM (input ligand: none); 83.8 nM under setting [1]; 119 nM under setting [2]; 90.4 nM under setting [3].
On to “AUAAGUAAGUUUUCGUGUUUUAUUACAGAUACCAGACUAUACGUUGUCCCUUGGCAGCUGGAUUACAUGAGGAUCACCCAUGUUG [#25 Exclusion-TheophyllineA]”, for which the “apparent KD of MS2 coat protein” value by setting is: (input ligand: arginine 13.2 mM) 19 nM; under setting [1], 33.9 nM; under setting [3], 23.9 nM.
Take “AUAAGUGUAAGAUACCGCACGCUGGAGGAAGGAGCGCGGAUUAACGCAGGUAGGUCGCCUCGUACAUGAGGAUCACCCAUGUGGC [#14 Same State - Arginine A]”: the “apparent KD of MS2 coat protein” value (input ligand: arginine 13.2 mM) is 41.7 nM; the “apparent KD of MS2 coat protein” value (input ligand: none) was 22.5 nM; the “apparent KD of MS2 coat protein” value under setting [1] turned out to be 41.5 nM; the “apparent KD of MS2 coat protein” value under setting [2] was 38.7 nM; the “apparent KD of MS2 coat protein” value under setting [3] turned out to be 35.2 nM.
On to “AUACAUGAGGAUCACCCAUGUAUAGUCGAUACCAGCUCAAGGAAGAGCCCUUGGCAGCGACACUGGUAUCCAUGGGUGAUACCAG [(Ms2)-(Theo)-(T)'-(M)'-(T)''_Design4]”, for which the “apparent KD of MS2 coat protein” value came to 17.8 nM (input ligand: arginine 13.2 mM), 36.4 nM under setting [1] and 19.3 nM under setting [3].
For the sequence “AUACAUGAGGAUCACCCAUGUCACACAGAAGGAGCGGCUGUAGAGCCAGGUAGGUCGCUGUACUCAAAAUACUUCAUACUCAUGU [JR_Nu_ExcArginiA_Sub033]”, the “apparent KD of MS2 coat protein” value was 34.9 nM (input ligand: arginine 13.2 mM); 33 nM (input ligand: none); 34.7 nM under setting [1]; 37 nM under setting [2]; 27.5 nM under setting [3].
On the same counts, the results for “AUACAUGAGGAUCACCCAUGUCAUUCAGAAGGAGCGUCAUUUUAGACAGGUAGGUCGCUGAUAUUAUUCUUAUACUUUAUGUUUA [JR_ExcArginiA_Sub022]” are 21 nM, 17.7 nM, 26 nM, 19.5 nM and 20.2 nM.
“AUACAUGAGGAUCACCCAUGUGAUGGCCGGCGAGGACCGGUACGGCCGCCACUCGUGAUCCGUCCUGAGAGCAAAGCUCUCAGCA [Macete]”: the “apparent KD of MS2 coat protein” value is, setting by setting: (input ligand: arginine 13.2 mM) 76 nM; (input ligand: none) 141 nM; under setting [1], 258 nM; under setting [2], 292 nM; under setting [3], 337 nM.
On the same counts, the results for “AUACAUGAGGAUCACCCAUGUUAUAGUGAAGGAGCGACAUUUAUGUCAGGUAGGUCGCACUAUUGUUUAAUGAUUCUUGGAUCUU [JR_ExcArginiA_Sub017]” are 16.9 nM, 15.2 nM, 22.4 nM, 15.1 nM and 18.5 nM.
Turning to “AUAGUCUAGAGUGAUACCAGACUACAUGAGGAUCACCCAUGUAUCUUUUGGUUAUCAUGUGUCCCUUGGCAGCACGCAUGUAUAG [JR_ExcTheophyB_Sub013]”, the “apparent KD of MS2 coat protein” value (input ligand: arginine 13.2 mM) is 11.3 nM, the “apparent KD of MS2 coat protein” value under setting [1] turned out to be 12.4 nM and the “apparent KD of MS2 coat protein” value under setting [3] was 9.94 nM.
Consider “AUCAUAAUAGCCUCGUGUAAUUAAAUGGAACGAGGACCGGUACGGCCGCCACUCGAUAUAAACAUGAGGAUCACCCAUGUAAGCA [JR_ExcTryptoA_Sub004]”, for which the “apparent KD of MS2 coat protein” value is, setting by setting: (input ligand: arginine 13.2 mM) 30.5 nM; under setting [1], 44.1 nM; under setting [2], 58.2 nM.
“AUCCCGUGAGCGGCCGCCACUGGAGGCUUUGCGCGACAUGAGGAUCACCCAUGUGUGCCCGGCGUUAGGACCGGGUUCGCGUGGA [#1 Same State - Tryptophan B Attempt #17 (HarryS)]”: the “apparent KD of MS2 coat protein” value is, setting by setting: (input ligand: arginine 13.2 mM) 29.3 nM; (input ligand: none) 25.6 nM; under setting [1], 71.3 nM; under setting [2], 65.1 nM; under setting [3], 34 nM.
In the case of “AUCGCACCUGGUGAUACCAGCGUUUGCUCGCGACAUGAGGAUCACCCAUGUGGCCAGUGAUGCCCUUGGCAGCAUGGGCGGUGCA [Same State - Theophylline B (Freestyle 28)]”, the “apparent KD of MS2 coat protein” value by setting is: (input ligand: arginine 13.2 mM) 111 nM; under setting [1], 412 nM; under setting [3], 349 nM.
On the same counts, the results for “AUCGUACCUGAUGAUACCAGCAUGUGAUCAUAACAUGAGGAUCACCCAUGUAAUCAGUGAUGCCCUUGGCAGCAUGAUCGGUACA [Same State - Theophylline B (Freestyle 13)]” are 45.5 nM, 79.6 nM and 56.7 nM.
On the same counts, the results for “AUCGUACCUGGUGAUACCAGCAAGUGAUUAUAACAUGAGGAUCACCCAUGUAAUCAGUGAUGCCCUUGGCAGCAUAAUCGGUACA [#24 Same State - Theophylline B]” are 26.9 nM, 37.8 nM and 26.6 nM.
On to “AUGCCUAGUGGAAGGAGCGAGGGUCUUCCCAACAUGAGGAUCACCCAUGUUCUUUUACACCCUCAGGUAGGUCGCCAUUGGGACA [Tilexete]”, for which the “apparent KD of MS2 coat protein” value (input ligand: arginine 13.2 mM) worked out at 41.7 nM; the “apparent KD of MS2 coat protein” value (input ligand: none) is 64.6 nM; the “apparent KD of MS2 coat protein” value under setting [1] was found to be 107 nM; the “apparent KD of MS2 coat protein” value under setting [2] worked out at 47.6 nM; the “apparent KD of MS2 coat protein” value under setting [3] was 82.8 nM.
On to “AUGUCACAUGAGGAUCACCCAUGUAUGGAUACCAGUUUAGUGAAUAACCCUUGGCAGCCAAGGAUGCGACAGAAAUCCGGAAAAC [theeternabot_sameState_MS2_Theo_A_22]”, for which the “apparent KD of MS2 coat protein” value (input ligand: arginine 13.2 mM) is 19 nM, the “apparent KD of MS2 coat protein” value under setting [1] amounted to 26.6 nM and the “apparent KD of MS2 coat protein” value under setting [3] is 20.5 nM.
Regarding “AUUAACAUGAGGAUCACCCAUGUGGCCCACCGAGGACCGGUACGGCCGCCACUCGUCGGAAAGGCUAAAUUUAUGAAGUCCAAAA [theeternabot_sameState_MS2_Trp_A_40]”, the “apparent KD of MS2 coat protein” value (input ligand: arginine 13.2 mM) is 18.6 nM, the “apparent KD of MS2 coat protein” value under setting [1] is 25.4 nM and the “apparent KD of MS2 coat protein” value under setting [2] was found to be 17 nM.
Consider “AUUAAUAAUAUGUAGACGGCGGAGACGAGACGAGGACCGGUACGGCCGCCACUCGUGUUAGUUAACAUGAGGAUCACCCAUGUUA [#10 Tryptophan A Same State]”, for which the “apparent KD of MS2 coat protein” value by setting is: (input ligand: arginine 13.2 mM) 11.2 nM; under setting [1], 17.5 nM; under setting [2], 13.9 nM.
Turning to “AUUCAUGAAAACAUGACAUAGGGAUCACUCCGAGGACCGGUACGGCCGCCACUCGCGAGGAGGCACAUGAGGAUCACCCAUGUUA [SS Tryp A #3]”, the “apparent KD of MS2 coat protein” value stood at 36.8 nM (input ligand: arginine 13.2 mM); 115 nM (input ligand: none); 146 nM under setting [1]; 180 nM under setting [2]; 108 nM under setting [3].
For “AUUGUGAAGUCGGCCGCCACUGGUUAGUUUAACCUCAUGUAACAUGAGGAUCACCCAUGUAAUGACAGGACCGGGACAAUAGUAA [JR_ExcTryptoB_Sub015]”, the “apparent KD of MS2 coat protein” value (input ligand: arginine 13.2 mM) worked out at 103 nM, the “apparent KD of MS2 coat protein” value under setting [1] was determined as 126 nM and the “apparent KD of MS2 coat protein” value under setting [2] amounted to 194 nM.
For “AUUUACAUGGUCAUAUAUAUAUCGUCAGAUACCAGACUAGAUAUUGUCCCUUGGCAGCUGUUACAUGAGGAUCACCCAUGUUAUA [JR_Nu_ExcTheophyA_Sub020]”, the “apparent KD of MS2 coat protein” value was found to be 54.5 nM (input ligand: arginine 13.2 mM), 113 nM under setting [1] and 178 nM under setting [3].
Take “AUUUUCGUAGGUUAAAGUUUAGAAACUGAAGGAGCGUGGUAUUACACAGGUAGGUCGCAGAUUUUACAUGAGGAUCACCCAUGUU [JR_ExcArginiA_Sub011]”: the “apparent KD of MS2 coat protein” value by setting is: (input ligand: arginine 13.2 mM) 14.9 nM; (input ligand: none) 22 nM; under setting [1], 25.4 nM; under setting [2], 20.6 nM; under setting [3], 17.7 nM.
As to “CAAACAUGAGGAUCACCCAUGUAAUCAGAUACCAGUGACGAAAGUCACCCUUGGCAGCUGAGUACAUAUUGGCAGAGGUGUUUGA [EThA NP+V+V2 #7]”, the “apparent KD of MS2 coat protein” value is 41.4 nM (input ligand: arginine 13.2 mM), 94.2 nM under setting [1] and 64.4 nM under setting [3].
